Results: patent US20100303819A1

Columns and labels:
Experiment in all cases: control-mAb-coated microbeads on monocyte-derived macrophages (which carry hDCL-1, MMR and DEC-205), confocal microscopy
[1] = biological target: human DCL-1 (native, on human leukocytes) (human) (UniProt Q8IX05)
[2] = biological target: DEC-205 (CD205) on human monocyte-derived macrophages (human) (UniProt O60449)
[3] = biological target: MMR/CD206 on human monocyte-derived macrophages (human) (UniProt P22897)

Measured: microbeads bound per cell

Chain of UniProt P22897 (P22897 19-1456): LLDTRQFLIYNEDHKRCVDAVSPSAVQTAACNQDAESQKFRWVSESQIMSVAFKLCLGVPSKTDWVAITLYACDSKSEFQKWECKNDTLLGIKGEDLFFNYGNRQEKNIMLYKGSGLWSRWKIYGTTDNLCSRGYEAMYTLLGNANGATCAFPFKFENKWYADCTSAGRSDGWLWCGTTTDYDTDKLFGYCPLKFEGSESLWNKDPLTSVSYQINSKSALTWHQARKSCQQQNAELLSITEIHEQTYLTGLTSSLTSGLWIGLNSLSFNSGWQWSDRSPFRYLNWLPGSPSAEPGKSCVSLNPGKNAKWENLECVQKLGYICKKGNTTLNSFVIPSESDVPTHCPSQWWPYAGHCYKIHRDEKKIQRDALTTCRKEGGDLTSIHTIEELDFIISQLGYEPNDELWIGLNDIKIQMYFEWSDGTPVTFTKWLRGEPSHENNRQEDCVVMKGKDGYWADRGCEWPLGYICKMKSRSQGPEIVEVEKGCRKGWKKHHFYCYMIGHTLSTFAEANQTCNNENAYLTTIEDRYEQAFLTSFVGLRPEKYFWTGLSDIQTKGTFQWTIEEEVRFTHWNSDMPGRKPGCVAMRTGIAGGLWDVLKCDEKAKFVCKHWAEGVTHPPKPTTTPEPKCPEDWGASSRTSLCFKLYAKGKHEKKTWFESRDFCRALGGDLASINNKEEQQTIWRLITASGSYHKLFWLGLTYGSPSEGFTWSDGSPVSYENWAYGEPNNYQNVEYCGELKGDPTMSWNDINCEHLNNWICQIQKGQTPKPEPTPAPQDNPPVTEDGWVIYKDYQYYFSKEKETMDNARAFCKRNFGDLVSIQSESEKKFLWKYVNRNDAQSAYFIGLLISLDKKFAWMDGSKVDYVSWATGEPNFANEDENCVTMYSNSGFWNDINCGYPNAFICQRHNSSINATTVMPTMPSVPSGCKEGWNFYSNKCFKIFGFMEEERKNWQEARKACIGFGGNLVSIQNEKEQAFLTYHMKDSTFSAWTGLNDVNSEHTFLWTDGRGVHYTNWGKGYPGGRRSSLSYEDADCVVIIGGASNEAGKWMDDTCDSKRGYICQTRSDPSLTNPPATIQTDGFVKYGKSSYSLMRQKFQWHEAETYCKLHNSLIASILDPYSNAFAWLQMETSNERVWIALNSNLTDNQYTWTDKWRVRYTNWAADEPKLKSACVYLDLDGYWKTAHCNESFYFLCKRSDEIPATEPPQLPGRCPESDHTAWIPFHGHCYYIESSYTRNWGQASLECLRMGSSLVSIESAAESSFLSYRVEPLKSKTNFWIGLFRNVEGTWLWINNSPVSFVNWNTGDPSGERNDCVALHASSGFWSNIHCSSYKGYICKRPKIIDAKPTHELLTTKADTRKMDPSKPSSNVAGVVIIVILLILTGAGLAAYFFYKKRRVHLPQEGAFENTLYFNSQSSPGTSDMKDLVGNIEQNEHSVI
Chain of UniProt O60449 (O60449 28-1722): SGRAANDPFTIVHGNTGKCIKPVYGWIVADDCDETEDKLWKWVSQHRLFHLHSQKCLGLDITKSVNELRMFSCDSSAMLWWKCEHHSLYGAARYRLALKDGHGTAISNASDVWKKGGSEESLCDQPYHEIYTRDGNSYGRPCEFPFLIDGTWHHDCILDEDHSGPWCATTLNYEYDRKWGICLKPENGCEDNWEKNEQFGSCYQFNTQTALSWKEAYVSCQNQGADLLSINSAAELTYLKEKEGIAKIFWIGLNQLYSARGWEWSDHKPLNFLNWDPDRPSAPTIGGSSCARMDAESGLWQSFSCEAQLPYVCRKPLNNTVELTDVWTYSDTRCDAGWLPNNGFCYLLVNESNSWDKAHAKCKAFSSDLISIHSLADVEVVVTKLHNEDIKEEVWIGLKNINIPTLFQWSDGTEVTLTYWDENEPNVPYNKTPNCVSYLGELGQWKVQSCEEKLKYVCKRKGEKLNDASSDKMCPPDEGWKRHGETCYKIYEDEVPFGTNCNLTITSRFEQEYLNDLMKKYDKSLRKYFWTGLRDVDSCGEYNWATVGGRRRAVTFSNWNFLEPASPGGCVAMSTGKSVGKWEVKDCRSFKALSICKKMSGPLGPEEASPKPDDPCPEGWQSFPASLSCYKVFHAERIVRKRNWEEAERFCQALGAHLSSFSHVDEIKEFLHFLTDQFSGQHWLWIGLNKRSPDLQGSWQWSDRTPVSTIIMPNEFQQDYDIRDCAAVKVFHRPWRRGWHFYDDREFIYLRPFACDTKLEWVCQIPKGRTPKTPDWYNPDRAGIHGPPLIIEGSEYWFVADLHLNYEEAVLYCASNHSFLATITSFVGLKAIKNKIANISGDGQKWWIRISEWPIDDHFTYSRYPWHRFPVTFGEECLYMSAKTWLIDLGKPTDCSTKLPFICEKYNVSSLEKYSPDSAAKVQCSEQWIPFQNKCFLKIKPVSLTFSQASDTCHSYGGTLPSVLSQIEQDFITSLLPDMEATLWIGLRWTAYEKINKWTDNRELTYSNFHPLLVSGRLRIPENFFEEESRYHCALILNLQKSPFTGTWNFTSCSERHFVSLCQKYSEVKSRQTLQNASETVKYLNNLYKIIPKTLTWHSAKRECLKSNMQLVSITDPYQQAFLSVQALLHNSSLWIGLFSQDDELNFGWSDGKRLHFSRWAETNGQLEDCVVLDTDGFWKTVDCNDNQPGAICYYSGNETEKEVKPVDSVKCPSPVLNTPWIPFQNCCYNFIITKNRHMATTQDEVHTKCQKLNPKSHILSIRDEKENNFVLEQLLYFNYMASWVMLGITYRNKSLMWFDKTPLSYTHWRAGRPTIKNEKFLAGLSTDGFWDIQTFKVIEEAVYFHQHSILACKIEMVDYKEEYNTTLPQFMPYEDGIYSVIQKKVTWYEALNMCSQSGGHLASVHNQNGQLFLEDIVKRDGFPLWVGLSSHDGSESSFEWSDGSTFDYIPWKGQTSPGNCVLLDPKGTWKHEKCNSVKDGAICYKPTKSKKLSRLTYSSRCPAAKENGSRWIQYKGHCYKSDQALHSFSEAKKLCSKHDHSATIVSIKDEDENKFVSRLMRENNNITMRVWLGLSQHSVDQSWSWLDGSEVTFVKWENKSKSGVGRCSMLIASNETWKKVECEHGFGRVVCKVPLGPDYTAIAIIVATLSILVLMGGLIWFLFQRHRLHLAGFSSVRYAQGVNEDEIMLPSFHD
Chain of UniProt Q8IX05 (Q8IX05 23-232 limits assumed): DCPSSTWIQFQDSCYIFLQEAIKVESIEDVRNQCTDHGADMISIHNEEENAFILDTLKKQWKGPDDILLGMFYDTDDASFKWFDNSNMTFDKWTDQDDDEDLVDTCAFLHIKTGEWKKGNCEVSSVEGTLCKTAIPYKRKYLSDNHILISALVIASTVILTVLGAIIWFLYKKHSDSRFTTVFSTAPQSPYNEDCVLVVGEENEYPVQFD

isotype control mAb 401.21 (antibody)
0.09 beads/cell: all assays above
